Test results reported in patent US20180334496A1 (KODIAK SCIENCES, published 2018).
Positions count from the first letter of the chain named. “And” between values parts separate entries of the source, which are not always exact repeats. Equal entries are not always repeated.

B1: 28H31S54V59D / 101V (antibody, V domains shown)
VH: EVQLVESGGGLVQPGGSLRLSCAASGYHFTSYYMNWVRQAPGKGLEWIGDINPVTGDTDYNADFKRRFTFSLDTSKSTAYLQMNSLRAEDTAVYYCTREGPSFAYWGQGTLVTVSS
VL: DIQLTQSPSSLSASVGDRVTITCRSSQTIVHSNGDTYLEWYQQKPGKAPNLLIYKVSNRFSGVPSRFSGSGSGTDFTLTISSLQPEDFATYYCFQGSHVPVTFGQGTKVEIK
notes: KCD119 TAF variant; full antibody captured on protein A
B2: 54I59D / 54S60W101V (antibody, V domains shown)
VH: B1 VH with H28T, S31D, V54I
VL: B1 VL with Y54S, F60W
notes: Light label printed 54560W101V, read as 54S60W101V; also called 54I59D / 54560W101V
B3: 31S54V59D / 32W60W101V (antibody, V domains shown)
VH: B1 VH with H28T
VL: B1 VL with S32W, F60W
notes: as for B1
B4: 31S54I59D / 32W60W101V (antibody, V domains shown)
VH: B1 VH with H28T, V54I
VL: B1 VL with S32W, F60W
notes: as for B1
B5: 31S34I54I59D / 32W60W101V (antibody, V domains shown)
VH: B1 VH with H28T, M34I, V54I
VL: B1 VL with S32W, F60W
notes: as for B1
B6: 31S54I59D84T / 32W60W101V (antibody, V domains shown)
VH: B1 VH with H28T, V54I, N84T
VL: B1 VL with S32W, F60W
notes: as for B1
B7: 54I59D / 54G60W101 (antibody, V domains shown)
VH: B1 VH with H28T, S31D, V54I
VL: B1 VL with Y54G, F60W
B8: 48V54V59D / 32W60W101V (antibody, V domains shown)
VH: B1 VH with H28T, S31D, I48V
VL: B1 VL with S32W, F60W
notes: as for B1
B9: 28S31S54V59D / 101V (antibody, V domains shown)
VH: B1 VH with H28S
VL: B1 VL
notes: as for B1
B10: 54V59D / 32D50I101V (antibody, V domains shown)
VH: B1 VH with H28T, S31D
VL: B1 VL with S32D, N50I
notes: as for B1
B11: 28Q31S54V59D / 101V (antibody, V domains shown)
VH: B1 VH with H28Q
VL: B1 VL
notes: as for B1
B12: 54I59D / 101V (antibody, V domains shown)
VH: B1 VH with H28T, S31D, V54I
VL: B1 VL
notes: as for B1
B13: 54I59D / 32W54S101V (antibody, V domains shown)
VH: B1 VH with H28T, S31D, V54I
VL: B1 VL with S32W, Y54S
notes: Light label printed 32W545101V, read as 32W54S101V; also called 54I59D / 32W545101V
B14: 28V31S54V59D / 101V (antibody, V domains shown)
VH: B1 VH with H28V
VL: B1 VL
notes: as for B1
B15: 34I54I59D / 32W60W101V (antibody, V domains shown)
VH: B1 VH with H28T, S31D, M34I, V54I
VL: B1 VL with S32W, F60W
notes: as for B1
B16: 31S54V59D / 101V (antibody, V domains shown)
VH: B1 VH with H28T
VL: B1 VL
notes: as for B1
B17: 54I59D / 32W54S60W101V (antibody, V domains shown)
VH: B1 VH with H28T, S31D, V54I
VL: B1 VL with S32W, Y54S, F60W
notes: Light label printed 32W54560W101V, read as 32W54S60W101V; also called 54I59D / 32W54560W101V
B18: 54I59D / 32W33G60W101V (antibody, V domains shown)
VH: B1 VH with H28T, S31D, V54I
VL: B1 VL with S32W, N33G, F60W
notes: KCD119 TAF variant; same label printed in three rows
B19: 31S54I59D / 54G101V (antibody, V domains shown)
VH: B1 VH with H28T, V54I
VL: B1 VL with Y54G
notes: as for B1
B20: 31S54I59D84S / 32W60W101V (antibody, V domains shown)
VH: B1 VH with H28T, V54I, N84S
VL: B1 VL with S32W, F60W
notes: Label printed 31S54I59D845, read as 84S; full antibody captured on protein A; also called 31S54I59D845 / 32W60W101V
B21: 31S54I59D / 50I60W101V (antibody, V domains shown)
VH: B1 VH with H28T, V54I
VL: B1 VL with N50I, F60W
notes: as for B1
B22: 54I59D84T / 32W60W101V (antibody, V domains shown)
VH: B1 VH with H28T, S31D, V54I, N84T
VL: B1 VL with S32W, F60W
notes: as for B1
B23: 54I59D / 50I60W101V (antibody, V domains shown)
VH: B1 VH with H28T, S31D, V54I
VL: B1 VL with N50I, F60W
notes: as for B1
B24: 54V59D / 32D60W101V (antibody, V domains shown)
VH: B1 VH with H28T, S31D
VL: B1 VL with S32D, F60W
notes: as for B1
B25: 28I31S54V59D / 101V (antibody, V domains shown)
VH: B1 VH with H28I
VL: B1 VL
notes: as for B1
B26: 54I59D / 32W60W101V (antibody, V domains shown)
VH: B1 VH with H28T, S31D, V54I
VL: B1 VL with S32W, F60W
notes: as for B1
B27: 54V56V / 101V (antibody, V domains shown)
VH: B1 VH with H28T, S31D, G56V, D59S
VL: B1 VL
notes: as for B1
B28: 28K31S54V59D / 101V (antibody, V domains shown)
VH: B1 VH with H28K
VL: B1 VL
notes: as for B1
B29: 54V59D / 101V (antibody, V domains shown)
VH: B1 VH with H28T, S31D
VL: B1 VL
notes: as for B1
B30: 31S48V54V59D / 101V (antibody, V domains shown)
VH: B1 VH with H28T, I48V
VL: B1 VL
notes: as for B1
B31: 54V59D / 32W60W101V (antibody, V domains shown)
VH: B1 VH with H28T, S31D
VL: B1 VL with S32W, F60W
notes: as for B1

Target: T1, serum purified human Complement Factor D (human, UniProt P00746 26-253)
T1 construct: Serum purified protein flowed over the captured antibodies; also called CFD; human CFD
Assay: SPR Biacore, antibody on protein A chip, single cycle kinetics, 37 C;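 also: antibodies captured on the protein A surface to roughly 70 RU in HBS-EP+ buffer, with rate and affinity constants fitted using BIAevaluation software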
Method: (§1) Antibodies were diluted to 0.5 ug/ml in HBS-EP+ buffer and captured on a protein A chip for 25 seconds to reach approximately 70 resonance units. […] Binding kinetic information was obtained by the BIAevaluation software (GE).

T1 sequence (P00746 26-253): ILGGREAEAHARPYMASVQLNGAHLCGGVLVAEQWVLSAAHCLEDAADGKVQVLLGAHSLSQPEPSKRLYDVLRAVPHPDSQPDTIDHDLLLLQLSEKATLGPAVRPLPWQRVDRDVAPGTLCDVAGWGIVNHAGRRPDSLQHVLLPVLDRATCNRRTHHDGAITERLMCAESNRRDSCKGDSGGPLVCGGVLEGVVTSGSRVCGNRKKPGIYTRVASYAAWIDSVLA

| Kd | koff | kon | Binder |
| --- | --- | --- | --- |
| 0.0257 nM | 0.000443 s⁻¹ | 1.72e+07 M⁻¹ s⁻¹ | B1 |
| 0.0119 nM | 0.000148 s⁻¹ | 1.24e+07 M⁻¹ s⁻¹ | B2 |
| 0.0227 nM | 0.000293 s⁻¹ | 1.29e+07 M⁻¹ s⁻¹ | B3 |
| 0.0343 nM | 0.000225 s⁻¹ | 6.55e+06 M⁻¹ s⁻¹ | B4 |
| 0.0312 nM | 0.000208 s⁻¹ | 6.67e+06 M⁻¹ s⁻¹ | B5 |
| 0.0288 nM | 0.000224 s⁻¹ | 7.79e+06 M⁻¹ s⁻¹ | B6 |
| 0.00989 nM | 0.000118 s⁻¹ | 1.19e+07 M⁻¹ s⁻¹ | B7 |
| 0.0212 nM | 0.000278 s⁻¹ | 1.31e+07 M⁻¹ s⁻¹ | B8 |
| 0.0727 nM | 0.000918 s⁻¹ | 1.26e+07 M⁻¹ s⁻¹ | B9 |
| 0.0274 nM | 0.00041 s⁻¹ | 1.5e+07 M⁻¹ s⁻¹ | B10 |
| 0.0757 nM | 0.00103 s⁻¹ | 1.35e+07 M⁻¹ s⁻¹ | B11 |
| 0.0475 nM and 0.0184 nM | 0.000437 s⁻¹ and 0.000222 s⁻¹ | 9.19e+06 M⁻¹ s⁻¹ and 1.21e+07 M⁻¹ s⁻¹ | B12 |
| 0.011 nM | 0.000155 s⁻¹ | 1.41e+07 M⁻¹ s⁻¹ | B13 |
| 0.051 nM | 0.00085 s⁻¹ | 1.66e+07 M⁻¹ s⁻¹ | B14 |
| 0.0217 nM | 0.000279 s⁻¹ | 1.29e+07 M⁻¹ s⁻¹ | B15 |
| 0.0411 nM | 0.000373 s⁻¹ | 9.08e+06 M⁻¹ s⁻¹ | B16 |
| 0.0124 nM | 0.000136 s⁻¹ | 1.1e+07 M⁻¹ s⁻¹ | B17 |
| 0.105 nM and 0.0979 nM and 0.135 nM | 0.0012 s⁻¹ and 0.00148 s⁻¹ and 0.00117 s⁻¹ | 1.14e+07 M⁻¹ s⁻¹ and 1.51e+07 M⁻¹ s⁻¹ and 8.69e+06 M⁻¹ s⁻¹ | B18 |
| 0.00931 nM | 0.000222 s⁻¹ | 2.38e+07 M⁻¹ s⁻¹ | B19 |
| 0.0235 nM | 0.000209 s⁻¹ | 8.9e+06 M⁻¹ s⁻¹ | B20 |
| 0.0276 nM | 0.000256 s⁻¹ | 9.26e+06 M⁻¹ s⁻¹ | B21 |
| 0.0258 nM | 0.000365 s⁻¹ | 1.41e+07 M⁻¹ s⁻¹ | B22 |
| 0.0318 nM | 0.000329 s⁻¹ | 1.04e+07 M⁻¹ s⁻¹ | B23 |
| 0.0415 nM | 0.000371 s⁻¹ | 8.93e+06 M⁻¹ s⁻¹ | B24 |
| 0.0195 nM | 0.00039 s⁻¹ | 2e+07 M⁻¹ s⁻¹ | B25 |
| 0.0131 nM and 0.00972 nM and 0.00501 nM |  | 1.5e+07 M⁻¹ s⁻¹ and 6.86e+06 M⁻¹ s⁻¹ and 1.17e+07 M⁻¹ s⁻¹ | B26 |
| 0.107 nM | 0.00104 s⁻¹ | 9.69e+06 M⁻¹ s⁻¹ | B27 |

Target: T1, serum purified human Complement Factor D
Assay: SPR Biacore, antibody on protein A chip, single cycle kinetics, 25 C;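 also: antibodies captured to roughly 70 RU on the protein A surface in HBS-EP+ running buffer, with kinetic constants derived by BIAevaluation fitting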
Method: as §1

| Kd | koff | kon | Binder |
| --- | --- | --- | --- |
| 0.0251 nM | 0.000167 s⁻¹ | 6.65e+06 M⁻¹ s⁻¹ | B1 |
| 0.00985 nM | 7.08e-05 s⁻¹ | 7.19e+06 M⁻¹ s⁻¹ | B2 |
| 0.0158 nM | 8.84e-05 s⁻¹ | 5.58e+06 M⁻¹ s⁻¹ | B3 |
| 0.0165 nM | 6.3e-05 s⁻¹ | 3.83e+06 M⁻¹ s⁻¹ | B4 |
| 0.0172 nM | 5.69e-05 s⁻¹ | 3.31e+06 M⁻¹ s⁻¹ | B5 |
| 0.0157 nM | 6.01e-05 s⁻¹ | 3.83e+06 M⁻¹ s⁻¹ | B6 |
| 0.0224 nM | 0.000163 s⁻¹ | 7.3e+06 M⁻¹ s⁻¹ | B28 |
| 0.0125 nM | 8.54e-05 s⁻¹ | 6.83e+06 M⁻¹ s⁻¹ | B7 |
| 0.0159 nM | 9.5e-05 s⁻¹ | 5.96e+06 M⁻¹ s⁻¹ | B8 |
| 0.0217 nM | 0.000166 s⁻¹ | 7.64e+06 M⁻¹ s⁻¹ | B9 |
| 0.0197 nM | 0.00016 s⁻¹ | 8.11e+06 M⁻¹ s⁻¹ | B10 |
| 0.023 nM | 0.000164 s⁻¹ | 7.15e+06 M⁻¹ s⁻¹ | B11 |
| 0.0204 nM and 0.0267 nM and 0.00908 nM | 0.000152 s⁻¹ and 0.000154 s⁻¹ and 5.74e-05 s⁻¹ | 7.43e+06 M⁻¹ s⁻¹ and 5.78e+06 M⁻¹ s⁻¹ and 6.32e+06 M⁻¹ s⁻¹ | B12 |
| 0.0371 nM | 0.000258 s⁻¹ | 6.94e+06 M⁻¹ s⁻¹ | B29 |
| 0.0169 nM | 0.000101 s⁻¹ | 5.98e+06 M⁻¹ s⁻¹ | B30 |
| 0.00948 nM | 7.29e-05 s⁻¹ | 7.69e+06 M⁻¹ s⁻¹ | B13 |

| Kd | koff | kon | Binder |
| --- | --- | --- | --- |
| 0.00601 nM | 4.76e-05 s⁻¹ | 7.91e+06 M⁻¹ s⁻¹ | B14 |
| 0.0211 nM | 0.000136 s⁻¹ | 6.45e+06 M⁻¹ s⁻¹ | B15 |
| 0.0188 nM and 0.0176 nM | 0.000131 s⁻¹ and 0.000101 s⁻¹ | 6.95e+06 M⁻¹ s⁻¹ and 5.71e+06 M⁻¹ s⁻¹ | B16 |
| 0.00858 nM | 5.37e-05 s⁻¹ | 6.25e+06 M⁻¹ s⁻¹ | B17 |
| 0.00607 nM | 4.79e-05 s⁻¹ | 7.88e+06 M⁻¹ s⁻¹ | B31 |
| 0.0514 nM and 0.0534 nM and 0.0778 nM | 0.0004 s⁻¹ and 0.000328 s⁻¹ and 0.000352 s⁻¹ | 7.78e+06 M⁻¹ s⁻¹ and 6.14e+06 M⁻¹ s⁻¹ and 4.53e+06 M⁻¹ s⁻¹ | B18 |
| 0.00689 nM | 8.25e-05 s⁻¹ | 1.2e+07 M⁻¹ s⁻¹ | B19 |
| 0.0203 nM | 7.76e-05 s⁻¹ | 3.83e+06 M⁻¹ s⁻¹ | B20 |
| 0.00774 nM | 3.98e-05 s⁻¹ | 5.14e+06 M⁻¹ s⁻¹ | B21 |
| 0.0169 nM | 8.43e-05 s⁻¹ | 4.99e+06 M⁻¹ s⁻¹ | B22 |
| 0.0121 nM | 6.67e-05 s⁻¹ | 5.53e+06 M⁻¹ s⁻¹ | B23 |
| 0.0102 nM | 0.000128 s⁻¹ | 1.25e+07 M⁻¹ s⁻¹ | B24 |
| 0.0177 nM | 0.000134 s⁻¹ | 7.59e+06 M⁻¹ s⁻¹ | B25 |
|  | 3.5e-05 s⁻¹ and 8.32e-05 s⁻¹ and 6.85e-05 s⁻¹ | 7.57e+06 M⁻¹ s⁻¹ and 4.91e+06 M⁻¹ s⁻¹ and 5.83e+06 M⁻¹ s⁻¹ | B26 |
| 0.0645 nM | 0.000351 s⁻¹ | 5.44e+06 M⁻¹ s⁻¹ | B27 |
